Assay results taken from PMC3763537.

Assays:
[1] = target: NprR(ΔHTH) (B. thuringiensis strain 407); experiment: ITC
[2] = target: NprR(ΔHTH)(Y223A/F225A) (B. thuringiensis strain 407); experiment: SEC
[3] = target: NprR(ΔHTH)(R126A) (B. thuringiensis strain 407); experiment: ITC
[4] = target: NprR(ΔHTH)(N407A/Y410A) (B. thuringiensis strain 407); experiment: ITC
[5] = target: NprR(ΔHTH)(Y223A/F225A) (B. thuringiensis strain 407); experiment: ITC
[6] = target: NprR(ΔHTH) (B. thuringiensis strain 407); experiment: dynamic light scattering
[7] = target: NprR(ΔHTH) (B. thuringiensis strain 407); experiment: SEC
[8] = target: NprR(ΔHTH) (B. thuringiensis strain 407); experiment: SEC; remark: listed apart in the source
[9] = target: NprR(ΔHTH) (B. thuringiensis strain 407); experiment: crystal structure
[10] = target: NprR(ΔHTH) (B. thuringiensis strain 407); experiment: dynamic light scattering; remark: listed apart in the source
[11] = target: NprR(ΔHTH) (B. thuringiensis strain 407); experiment: SEC-MALS
[12] = target: full-length NprR (B. thuringiensis strain 407); experiment: dynamic light scattering
[13] = target: full-length NprR (B. thuringiensis strain 407); experiment: SEC
[14] = target: full-length NprR (B. thuringiensis strain 407); experiment: dynamic light scattering; remark: listed apart in the source
[15] = target: full-length NprR (B. thuringiensis strain 407); experiment: SEC-MALS

## NprX7 variant SKPDIVG-CO-NH (peptide)
[1]
  Kd: 5.5 µM

## NprR(ΔHTH)(Y223A/F225A) (domain or fragment)
[2]
  stoichiometry N: 2

## NprX7 heptapeptide SKPDIVG
[3]
  Kd: 0.64 µM
[4]
  Kd: 0.1 µM
[5]
  Kd: 0.1 µM
[1]
  Kd: 0.1 µM

## NprR(ΔHTH) (domain or fragment)
[6]
  stoichiometry N: 4
[7]
  stoichiometry N: 2
[8]
  stoichiometry N: 2
[9]
  stoichiometry N: 4
[10]
  stoichiometry N: 2
[11]
  stoichiometry N: 2

## full-length NprR (natural protein)
[12]
  stoichiometry N: 4
[13]
  stoichiometry N: 2
[14]
  stoichiometry N: 2
[15]
  stoichiometry N: 2

## SRPDVLT [NprX7-IV (SRPDVLT)]
[1]
  Kd: 6 µM

## SNPDIYG [NprX7-III (SNPDIYG)]
[1]
  Kd: 0.08 µM

## SSKPDIVG [NprX8n octapeptide SSKPDIVG]
[1]
  Kd: 0.03 µM

## WKPDTLG [NprX7 peptide (WKPDTLG) characteristic of groups V to VII]
[1]
  Kd: 3 µM

## SKPDTYG [NprX7-II (SKPDTYG)]
[1]
  Kd: 0.4 µM

## SKPDIVGQ [NprX8c SKPDIVGQ]
[1]
  Kd: 1 µM

## YSSKPDIVG [NprX9n …]
[1]
  Kd: 0.22 µM
